Assays:
[1] = target: the molecule itself; experiment: aggregation of NMR assignment samples; 2 mM peptide in 50 mM sodium phosphate, 0.01% NaN3, 5% D2O, pH 6.8; NMR at 5 °C
[2] = target: the molecule itself; experiment: loss of 1D 1H NMR signal on change of pH; Nup98^FG (200 μM) or Nup98^FG85 (100 μM) in 50 mM sodium phosphate, 1 mM TCEP, 0.01% NaN3, 5% D2O; pH 3, adjusted to pH 7, then back to pH 3 and 30 min at 65 °C
[3] = target: the molecule itself; experiment: time-dependent loss of NMR signal (self-association/aggregation); synthetic Nup98 peptides alone in solution; propensity = difference between the NMR signal expected for the peptide concentration and that observed after 1 day of incubation at 5 °C (Fig. 2c); kinetics of 95-124 and its mutants in Supplementary Fig. 5
[4] = target: the molecule itself; experiment: cryo-EM structure; amyloid fibrils of Nup98^FG85: peptide dissolved in pure water at 1.5 mM, incubated at 25 °C for 1 h; helical reconstruction of four polymorphs (pm1-pm4)

B1: Nup98(345–384) peptide (peptide, UniProt P52948 345-384, looked up)
peptide: Ac-TGTGLFGQTNTGFGAVGSTLFGNNKLTTFGSSTTSAPSFG-NH2
notes: human nucleoporin 98 (Nup98), residues 345-384; source: synthetic peptide (solid-phase synthesis, Genscript)
B1: binds [1].

B2: FG-repeat domain of human Nup98 (Nup98^FG, residues 1–384) (domain or fragment, UniProt P52948 1-384, looked up)
chain: MFNKSFGTPFGGGTGGFGTTSTFGQNTGFGTTSGGAFGTSAFGSSNNTGGLFGNSQTKPGGLFGTSSFSQPATSTSTGFGFGTSTGTANTLFGTASTGTSLFSSQNNAFAQNKPTGFGNFGTSTSSGGLFGTTNTTSNPFGSTSGSLFGPSSFTAAPTGTTIKFNPPTGTDTMVKAGVSTNISTKHQCITAMKEYESKSLEELRLEDYQANRKGPQNQVGAGTTTGLFGSSPATSSATGLFSSSTTNSGFAYGQNKTAFGTSTTGFGTNPGGLFGQQNQQTTSLFSKPFGQATTTQNTGFSFGNTSTIGQPSTNTMGLFGVTQASQPGGLFGTATNTSTGTAFGTGTGLFGQTNTGFGAVGSTLFGNNKLTTFGSSTTSAPSFG
notes: human nucleoporin 98 (Nup98), amino-terminal 384 residues (FG-repeat domain), in pET28a between NheI and XhoI; The methods describe no step that cleaves the His tag; also called 384-residue Nup98^FG domain; source: E. coli BL21(DE3), purified from the pellet in urea (Ni-NTA, two SEC steps)
B2: binds [2].

B3: Nup98(298–327) peptide (peptide, UniProt P52948 298-327, looked up)
peptide: Ac-TGFSFGNTSTIGQPSTNTMGLFGVTQASQP-NH2
notes: human nucleoporin 98 (Nup98), residues 298-327; source: synthetic peptide (solid-phase synthesis, Genscript)
B3: binds [1].

B4: Nup98(95–124) peptide with Q105 and Q111 replaced by serine (peptide, UniProt P52948 95-124, looked up)
peptide: ASTGTSLFSSSNNAFASNKPTGFGNFGTST
notes: also called glutamine-to-serine mutant peptide; source: synthetic peptide (solid-phase synthesis, Genscript)
B4: binds [3].

B5: Nup98(95–124) peptide with F117 and F120 replaced by serine (peptide, UniProt P52948 95-124, looked up)
peptide: ASTGTSLFSSQNNAFAQNKPTGSGNSGTST
notes: also called phenylalanine-to-serine mutant peptide; source: synthetic peptide (solid-phase synthesis, Genscript)
B5: binds [3].

B6: Nup98^FG85 (residues 85–124 of human Nup98) (peptide, UniProt P52948 85-124, looked up)
peptide: TGTANTLFGTASTGTSLFSSQNNAFAQNKPTGFGNFGTST
notes: It forms amyloid fibrils of indefinite length with 3 (pm1) or 2 (pm2-pm4) protofilaments; also called Nup98^FG85 segment; source: synthetic peptide (solid-phase synthesis, Genscript)
B6: binds [4].

B7: Nup98(95–124) peptide (peptide, UniProt P52948 95-124, looked up)
peptide: Ac-ASTGTSLFSSQNNAFAQNKPTGFGNFGTST-NH2
notes: source: synthetic peptide (solid-phase synthesis, Genscript)
B7: binds [3].
